Test results reported in patent US20240158497A1 (published 2024).

T1: human GP130 extracellular domain expressed with a C-terminal mouse IgG2a Fc tag (hGP130-mFc) (human)
T1 construct: also called dimeric human GP130
T1 chain: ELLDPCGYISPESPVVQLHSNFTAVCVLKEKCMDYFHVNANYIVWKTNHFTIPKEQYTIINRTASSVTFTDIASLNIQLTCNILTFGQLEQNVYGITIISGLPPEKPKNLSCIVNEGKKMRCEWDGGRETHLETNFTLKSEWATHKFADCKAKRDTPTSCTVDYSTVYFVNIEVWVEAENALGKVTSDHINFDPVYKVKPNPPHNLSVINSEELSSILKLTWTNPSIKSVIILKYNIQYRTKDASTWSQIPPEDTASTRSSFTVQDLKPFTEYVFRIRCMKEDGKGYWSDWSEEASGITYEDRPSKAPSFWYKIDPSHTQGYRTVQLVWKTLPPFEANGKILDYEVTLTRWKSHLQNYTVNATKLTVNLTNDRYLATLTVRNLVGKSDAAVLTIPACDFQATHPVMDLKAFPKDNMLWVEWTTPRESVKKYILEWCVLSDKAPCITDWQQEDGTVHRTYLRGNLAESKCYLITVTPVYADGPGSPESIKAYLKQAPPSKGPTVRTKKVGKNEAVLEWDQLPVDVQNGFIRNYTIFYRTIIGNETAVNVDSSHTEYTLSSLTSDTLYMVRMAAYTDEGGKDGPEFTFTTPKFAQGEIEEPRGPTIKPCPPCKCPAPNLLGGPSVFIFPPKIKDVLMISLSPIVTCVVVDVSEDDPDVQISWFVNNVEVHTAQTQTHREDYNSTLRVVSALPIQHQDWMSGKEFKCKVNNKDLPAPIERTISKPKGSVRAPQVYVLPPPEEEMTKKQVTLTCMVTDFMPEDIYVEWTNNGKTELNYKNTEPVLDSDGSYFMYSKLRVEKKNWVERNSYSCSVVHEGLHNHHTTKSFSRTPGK


Legend:
[1] = molecular target: T2, mouse GP130 extracellular domain expressed with a C-terminal myc-myc-hexahistidine tag (mouse, UniProt Q00560 23-617); assay: SPR
T2 construct: monomeric; also called mGP130-mmH; mGP130-MMH
T2 sequence (Q00560 other isoform, or with tags, fused parts or gaps): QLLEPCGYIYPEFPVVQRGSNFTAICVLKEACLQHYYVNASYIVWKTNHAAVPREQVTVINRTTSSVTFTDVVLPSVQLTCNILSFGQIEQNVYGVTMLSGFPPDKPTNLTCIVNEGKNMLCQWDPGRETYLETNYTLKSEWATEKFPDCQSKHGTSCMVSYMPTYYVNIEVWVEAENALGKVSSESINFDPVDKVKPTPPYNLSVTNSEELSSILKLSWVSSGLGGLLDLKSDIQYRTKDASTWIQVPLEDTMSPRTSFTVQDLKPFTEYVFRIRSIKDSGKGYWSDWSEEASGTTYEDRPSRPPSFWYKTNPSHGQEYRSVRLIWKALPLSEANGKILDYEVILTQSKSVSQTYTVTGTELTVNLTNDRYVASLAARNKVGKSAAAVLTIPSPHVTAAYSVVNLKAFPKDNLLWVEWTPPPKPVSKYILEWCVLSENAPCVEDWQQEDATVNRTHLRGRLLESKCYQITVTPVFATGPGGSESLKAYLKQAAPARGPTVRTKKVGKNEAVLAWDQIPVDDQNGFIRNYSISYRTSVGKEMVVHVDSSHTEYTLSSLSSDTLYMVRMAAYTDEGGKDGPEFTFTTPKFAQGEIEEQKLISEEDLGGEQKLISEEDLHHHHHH
Experimental: (§1) Equilibrium dissociation constant (KD) for different GP130 reagents binding to purified anti-GP130 monoclonal antibodies were determined using a real-time surface plasmon resonance based Biacore 4000 biosensor. All binding studies were performed in 10 mM HEPES, 150 mM NaCl, 3 mM EDTA, and 0.05% v/v Surfactant Tween-20, pH 7.4 (HBS-ET) running buffer at 25° C. and 37° C. The Biacore sensor surface was first derivatized by amine coupling with a monoclonal mouse anti-human Fc antibody (GE, #BR-1008-39) to capture anti-GP130 monoclonal antibodies. […] Reagents tagged with “mmH” are monomeric, whereas reagents tagged with “mFc” are dimeric. Thus, for example, “hGP130-mmH” is also referred to as “monomeric human GP130,” and “hGP130-mFc” is also referred to as “dimeric human GP130.”
(§2) The association rate (k a) and dissociation rate (kd) were determined by fitting the real-time binding sensorgrams to a 1:1 binding model with mass transport limitation using Scrubber 2.0c curve-fitting software. Binding dissociation equilibrium constant (KD) and dissociative half-life (t ½) were calculated from the kinetic rates as: […]

[2] = molecular target: T3, human GP130 delta D1-D3 expressed with a C-terminal myc-myc hexahistidine tag (human, UniProt P40189 329-619); assay: Luminex, myc-captured antigen
T3 construct: CHO supernatant, captured on anti-myc microspheres; also called human GP130 delta D1-D3-MMH
T3 sequence (P40189 other isoform, or with tags, fused parts or gaps mutant limits assumed): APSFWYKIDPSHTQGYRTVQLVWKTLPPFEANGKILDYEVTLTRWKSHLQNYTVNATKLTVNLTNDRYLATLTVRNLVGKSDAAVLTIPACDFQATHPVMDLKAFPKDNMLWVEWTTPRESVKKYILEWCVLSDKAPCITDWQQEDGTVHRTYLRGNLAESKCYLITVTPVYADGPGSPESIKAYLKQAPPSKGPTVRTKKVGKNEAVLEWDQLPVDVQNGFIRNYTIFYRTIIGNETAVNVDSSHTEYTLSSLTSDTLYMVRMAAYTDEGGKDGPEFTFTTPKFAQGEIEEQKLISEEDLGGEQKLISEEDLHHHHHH
Experimental: Aliquots of microspheres with immobilized anti-myc monoclonal antibodies, prepared as described above, were added individually to 1 mL of the each of these protein supernatants and to 500 uL of purified GP130 protein. The microspheres were gently mixed, incubated for two hours at 25° C., washed twice with 1 mL of DBPS, centrifuged to remove the supernatant and finally resuspended in 1 mL of DPBS buffer. Forty eight μL of anti-myc IgG coupled microspheres from individual reactions with full length human GP130 and with each of the human GP130 domain proteins were withdrawn and mixed together in 3.6 mL of PBS+20 mg/mL BSA+0.05% sodium azide (blocking buffer).
From this mixed pool, 75 μL of microspheres were plated per well on a 96 well filter plate (Millipore, Cat. No: MSBVN1250) and mixed with 25 μL of individual anti-human GP130 monoclonal antibodies (0.5 or 5 μg/mL), incubated for two hours at 25° C. and then washed twice with 200 μL of DPBS with 0.05% Tween 20 (washing buffer). To detect and quantify the amounts of bound anti-GP130 antibody levels to individual microspheres, either 100 μL of 2.5 μg/mL R-Phycoerythrin conjugated goat F(ab′)2 anti-human kappa (Southern Biotech, Cat #2063-09) in blocking buffer, was added and incubated for 30 minutes at 25° C. After 30 minutes, the samples were washed twice with 200 μL of washing buffer and resuspended in 150 μL of wash buffer. The Median Fluorescence intensity (MFI) of the microspheres was measured in a Luminex Analyzer.

[3] = molecular target: T4, human GP130 extracellular domain expressed with a C-terminal myc-myc-hexahistidine tag (human, UniProt P40189 23-619); assay: SPR 25C, mAb captured, hGP130-MMH injected
T4 construct: monomeric; also called hGP130-mmH; hGP130-MMH
Experimental: as §1, §2

[4] = molecular target: T1, human GP130 extracellular domain …; assay: SPR Biacore, mAb captured via anti-hFc, 25 C
Experimental: as §1, §2

[5] = molecular target: T5, mouse GP130 extracellular domain expressed with a C-terminal myc-myc-hexahistidine tag (mGP130-mmH) (mouse, UniProt Q00560 23-617); assay: SPR Biacore, mAb captured via anti-hFc, 25 C
T5 construct: Monomeric; the entry includes the myc-myc-His tag
T5 sequence (Q00560 other isoform, or with tags, fused parts or gaps): as the sequence (Q00560 other isoform, or with tags, fused parts or gaps) above
Experimental: as §1, §2

[6] = molecular target: T6, rat GP130 extracellular domain expressed with a C-terminal myc-myc-hexahistidine tag (rGP130-mmH) (rat, UniProt P40190 23-618); assay: SPR Biacore, mAb captured via anti-hFc, 25 C
T6 construct: Monomeric; the entry includes the myc-myc-His tag
T6 sequence (P40190 other isoform, or with tags, fused parts or gaps): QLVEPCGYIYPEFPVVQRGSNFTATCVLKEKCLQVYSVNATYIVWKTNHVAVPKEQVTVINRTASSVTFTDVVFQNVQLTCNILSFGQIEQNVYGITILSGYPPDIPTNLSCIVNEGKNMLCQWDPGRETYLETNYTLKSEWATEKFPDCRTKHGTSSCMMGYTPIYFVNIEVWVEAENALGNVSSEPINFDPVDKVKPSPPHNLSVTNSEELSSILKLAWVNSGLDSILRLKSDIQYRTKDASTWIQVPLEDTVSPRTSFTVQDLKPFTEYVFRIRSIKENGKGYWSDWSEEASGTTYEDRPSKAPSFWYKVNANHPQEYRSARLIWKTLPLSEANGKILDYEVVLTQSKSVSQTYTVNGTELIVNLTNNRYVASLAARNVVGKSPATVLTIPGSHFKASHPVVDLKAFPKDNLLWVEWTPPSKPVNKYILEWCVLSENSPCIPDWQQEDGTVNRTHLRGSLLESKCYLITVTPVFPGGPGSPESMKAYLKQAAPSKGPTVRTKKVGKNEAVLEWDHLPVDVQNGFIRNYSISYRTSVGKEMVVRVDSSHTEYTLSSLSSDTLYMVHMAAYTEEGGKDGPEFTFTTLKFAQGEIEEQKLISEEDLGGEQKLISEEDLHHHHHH
Experimental: as §1, §2

[7] = molecular target: T1, human GP130 extracellular domain …; assay: SPR Biacore, mAb captured via anti-hFc, 37 C
Experimental: as §1, §2

[8] = molecular target: T5, mouse GP130 extracellular domain …; assay: SPR Biacore, mAb captured via anti-hFc, 37 C
Experimental: as §1, §2

[9] = molecular target: T6, rat GP130 extracellular domain …; assay: SPR Biacore, mAb captured via anti-hFc, 37 C
Experimental: as §1, §2

Binder	binding result [1]	binding result [2]	100 nM Ag Bound (RU) [3] [RU]	Kd [3] [nM]	koff [3] [s⁻¹]	kon [3] [M⁻¹ s⁻¹]	t½ [3] [min]	100 nM Ag Bound (RU) [4] [RU]	Kd [4] [nM]	koff [4] [s⁻¹]	kon [4] [M⁻¹ s⁻¹]	t½ [4] [min]	100 nM Ag Bound (RU) [5] [RU]	100 nM Ag Bound (RU) [6] [RU]	binding result [6]	100 nM Ag Bound (RU) [7] [RU]	Kd [7] [nM]	koff [7] [s⁻¹]	kon [7] [M⁻¹ s⁻¹]	t½ [7] [min]	other results
MAb16618 (antibody, V domains shown) VH: QVQLQESGPGLVKPSETLSLTCTVSGGSISNYYWTWIRQPPGKGLEWIGHISNSGTTNYNPSLKSRVTISVDTSKNQFSLKLTSVTAADTAVYYCARLPLGIAAVDTDYYYYFGMDVWGQGTTVTVSS VL: not shown	no binding (tested: 100 nM)	no binding (tested: 0.5 or 5 µg/mL)	52	120	0.0425	354000	0.3	–	–	–	–	–	–	–	–	–	–	–	–	–	–
MAb16622 (antibody, V domains shown) VH: EVQLVESGGGVVRPGGSLRLSCTASGFTFDDYGMSWVRQAPGKGLEWVSGINWNGGRTEYADAVKGRFIISRDNAKNSLYLQMNSLRAEDTALYFCARTELRWDYWGQGTLVTVSS VL: not shown	no binding (tested: 100 nM)	no binding (tested: 0.5 or 5 µg/mL)	36	203	0.0243	120000	0.5	–	–	–	–	–	–	–	–	–	–	–	–	–	–
MAb16614 (antibody, V domains shown) VH: QVQLVESGGGVVQPGGSLRLSCAASGFTFSTYDIHWVRQAPGKGLEWVAVISFDGSNRNYGDSVKGRFTISRDNSDNTLFLEMNNLRFEDTAVYYCAKEGYGVDFQHWGQGTLVTVSS VL: not shown	no binding (tested: 100 nM)	no binding (tested: 0.5 or 5 µg/mL)	18	183	0.0101	55200	1.1	–	–	–	–	–	–	–	–	–	–	–	–	–	–
MAb16680 (antibody, V domains shown) VH: QVQLQQSGPGQMKSSQTLTLTCAISGDSVSSNSAIWYWIRQSPSRGLEWLGRTKFRSKWYNDFALSMKSRITINPDTSKNQFSLHLNSVTPEDTAVYYCARYKWELYFDYWGQGTLVTVSS VL: not shown	no binding (tested: 100 nM)	–	–	–	–	–	–	–	–	–	–	–	–	–	–	–	–	–	–	–	–
MAb16683 (antibody, V domains shown) VH: QVQLVESGGGLVKPGGSLRLSCAASGFTFSDYYMTWIRQTPGKGLDWVSYISSSGTNKYNADSVKGRFTISRDNAKNSLYLQMNSLRAEDTAVYYCVRDPPWGMDVWGQGTTVTVSS VL: not shown	no binding (tested: 100 nM)	–	54	46.7	0.00325	69700	4	–	–	–	–	–	–	–	–	–	–	–	–	–	–
MAb16683 (antibody, V domains shown, captured through anti-human Fc) VH: QVQLVESGGGLVKPGGSLRLSCAASGFTFSDYYMTWIRQTPGKGLDWVSYISSSGTNKYNADSVKGRFTISRDNAKNSLYLQMNSLRAEDTAVYYCVRDPPWGMDVWGQGTTVTVSS VL: not shown	–	–	–	–	–	–	–	107	1.86	0.000311	167000	37	0	0	no binding (tested: 100 nM)	111	5.8	0.00114	196000	10	100 nM Ag Bound (RU) [8]: 0 RU; binding result [8]: no binding (tested: 100 nM); 100 nM Ag Bound (RU) [9]: 0 RU
MAb16676 (antibody, V domains shown, captured through anti-human Fc) VH: QVQLVQSGAEVMKPGASVKVSCRASGYTFSSYDINWVRQAPGQGLEWMGWISTATGNTNYPQKVQGRVTMTTDTSTNTAYMELRSLRSDDTAVYYCTREGNSKGWLDPWGQGTLVTVSS VL: not shown	–	–	–	–	–	–	–	119	0.0836	7.13e-05	853000	162	0	0	no binding (tested: 100 nM)	140	0.0566	9.45e-05	1.67e+06	122	100 nM Ag Bound (RU) [8]: 0 RU; binding result [8]: no binding (tested: 100 nM); 100 nM Ag Bound (RU) [9]: 0 RU
MAb16682 (antibody, V domains shown, captured through anti-human Fc) VH: EVQLVESGGGLVQPGGSLRLSCAASGFTFSTYWMNWVRQAPGKGLEWVANIKEDGSEKYYVDSVKGRFTISRDNAKNSLYLQMNSLRAEDTAVYYCAREGFGVVTYIWGQGTMVTVSS VL: not shown	–	–	–	–	–	–	–	126	2.1	0.000361	172000	32	1	0	no binding (tested: 100 nM)	130	8.33	0.00196	236000	6	100 nM Ag Bound (RU) [8]: 0 RU; binding result [8]: no binding (tested: 100 nM); 100 nM Ag Bound (RU) [9]: 1 RU
MAb16669 (antibody, V domains shown) VH: EVQLVESGGGLVQPGGSLRLSCAASGFTFSSYAMNWVRQAPGKGLEWVSAISGSGDSTYYTDSVKGRFTISRDNSKNTLYLQMNTLRAEDTAVYYCAKEEIVMLVGATPGWFDPWGQGTLVTVSS VL: not shown	no binding (tested: 100 nM)	–	17	35.4	0.000403	11400	29	–	–	–	–	–	–	–	–	–	–	–	–	–	–
MAb16623 (antibody, V domains shown) VH: EVQLVESGGGLVQPGGSLRLSCAASGLTFSSYEMNWVRQAPGKGLEWVSHISSAGSTKYYADSVKGRFTISRDNAKNSLFLQMNSLRAEDTAIYYCAGYNYAYYYFGVDVWGQGTTVTVSS VL: not shown	no binding (tested: 100 nM)	–	77	21	0.00377	180000	3	–	–	–	–	–	–	–	–	–	–	–	–	–	–
